In the assay the target is T1, endogenous human zinc transporter 8 (ZnT8) in EndoC-βH1 cells (human, UniProt Q8IWU4 1-369).
T1 construct: whole, on cells; Intracellular membrane protein, probed in fixed and permeabilised cells (in-cell ELISA), in SDS lysates (immunoblot) or in liposomes (SUVs) made from the cells; On blots two natural splice variants (A and B) are detected; also called endogenous ZnT8; SLC30A8 product
T1 sequence (looked up): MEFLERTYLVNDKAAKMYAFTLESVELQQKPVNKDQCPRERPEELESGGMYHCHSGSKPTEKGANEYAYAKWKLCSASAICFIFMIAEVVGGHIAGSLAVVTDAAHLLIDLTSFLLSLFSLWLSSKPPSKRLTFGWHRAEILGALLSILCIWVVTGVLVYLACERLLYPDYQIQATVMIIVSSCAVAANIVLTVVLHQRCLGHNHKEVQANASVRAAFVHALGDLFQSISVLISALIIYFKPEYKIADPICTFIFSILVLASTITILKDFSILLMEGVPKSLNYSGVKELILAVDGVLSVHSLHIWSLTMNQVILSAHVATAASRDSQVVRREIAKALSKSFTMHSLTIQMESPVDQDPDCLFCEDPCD
Kind of assay: in-cell ELISA, 95×10^3 EndoC-βH1 cells against the same number of rat INS-1E cells. As for the experimental part: Next, mAb20 or a rabbit anti-HLA-I antibody (Proteintech, Cat. #15240-1-AP) was 1:600 or 1:60 diluted to Permeabilization/Wash Buffer I plus 0.5% BSA. Cells in each well were incubated with the diluted antibody solution for 2 hr at 37° C., washed once, and then exposed to a HRP-conjugated anti-mouse IgG (H+L) (Invitrogen, Cat. #62-6520) or anti-rabbit IgG (H+L) antibody (Invitrogen, Cat. #62-6120) in a 1:3000 dilution in Permeabilization/Wash Buffer I plus 0.1% BSA. After 1 hr incubation with the secondary antibody at RT, cells were washed three times to remove unbound antibodies before adding SuperSignal ELISA Femto Substrate (ThermoFisher Scientific, Cat. #37075). The HRP reaction was terminated at 5 min by transferring the reaction mixture to a 96-well opaque microplate for chemiluminescence quantification on a FlexStation-3 multi-mode microplate reader.
Assay validation. A ZnT8-specific ELISA was developed to track the endogenous ZnT8 level in EndoC-βH1 cells immobilized to a 96-well plate by paraformaldehyde fixation, followed by immunostaining and horseradish peroxidase (HRP) chemiluminescence. The non-specific background was estimated using rat insulinoma INS-1E and human HEK293 cells as negative controls. […] The signal-to-noise ratio at 95×10^3 cells was 3.9 (Z′ score=0.8) over a background detected from a same number of INS-1E cells (FIG. 1A). […]

B1: anti-ZnT8 monoclonal antibody mAb20 (antibody, mouse IgG1, kappa, V domains shown)
VH: QIQLVQSGPELKKPGETVKISCKASGYIFTNYPMHWVKQAPGKGLKWMGWINTYSGVPTHADDFKGRFAFSLETSANSAFLQINNLKNEDTATYFCTRSRITPTGGYAMDYWGQGTSVTVSS
VL: DVVMTQTPLSLPVSLGDQASISCRSSQSLVHSNGNTYLHWYLQKPGQSPNLLISKVSNRFSGVPERFSGSGSGTDFTLKISRVEAEDLGVYFCSQNTHVPWTFGGGTKLEIKR
notes: Mouse monoclonal antibody; Used free (1:600 of a 1 mg/ml stock), biotinylated, or crosslinked to Dynabeads through NHS-PEG5K-NHS; also called mouse mAb20; biotinylated mAb20
As to B1, the signal-to-noise ratio is 3.9.

(Values after patent US20210302413A1 (Johns Hopkins, published 2021).)
